Target: Myo1^IQ12-FRET protein (CyPet and YPet separated by both Myo1 IQ motifs) (S. pombe)
Assay: FRET or BRET; Cam1 or ^ACECam1 titrated into 0.5 µM Myo1^IQ12-FRET protein in solution, absence of calcium; % change in donor CyPet fluorescence (excitation 435 nm); 140 mM KCl, 2 mM MgCl2, 20 mM MOPS pH 7.0, 2 mM EGTA; two binding events fitted

| Substance | affinity of the first binding event [µM] | affinity of the second binding event [µM] |
| --- | --- | --- |
| Cam1 (unacetylated Schizosaccharomyces pombe calmodulin) (from UniProt P05933 1-150) (natural protein) | < 0.1 | 1.47 |
| ^ACECam1 (amino-terminally acetylated Schizosaccharomyces pombe calmodulin) (from UniProt P05933 1-150) (natural protein) | < 0.1 | 0.68 |

— publication PMC9303947
